US20170087188A1, “WNT INDUCED MOTILITY AND ENHANCED ENGRAFTMENT OF CELLS” (OTTAWA HOSPITAL RESEARCH INSTITUTE, priority 2014, published 2017)
Several values for one entry are separate records, joined by “and”; a condition that tells them apart may be missing. Identical values can stand only once. Entries after “also recorded” stand apart in the source; their conditions may differ.

Columns and labels:
satellite cells = assay: Live imaging of satellite cells on single cultured myofibers; type: cell-based, mouse; conditions: Wnt7a 1.5 μg/mL; compared to Veh.
Experimental: The effect of Wnt7a on satellite cell migration was measured using a time lapse imaging technique previously employed to monitor satellite cells on single muscle myofibers (Siegel et al., 2009). Wnt7a increased the mean velocity of satellite cells by 31% when compared to Veh. (FIG. 2F). […] (FIG. 2G).
Single cell imaging of cells transfected with Fzd7-YFP or YFP was performed on an LSM710 confocal microscope under 5% CO2 at 37° C. in phenol-red free DMEM (Life technologies) containing 10% FBS. Imaging of satellite cells on fibers was performed as described (Siegel et al., 2009). For live imaging of satellite cells on myofibers, Wnt7a was used at a concentration of 1.5 μg/mL. Satellite cell time-lapse microscopy was performed using a Leica DMI 5100 inverted microscope and MetaMorph 7.6.1 Software (Molecular Devices) with time points being acquired every 7 minutes in a stagetop incubator (LiveCell Imaging). ImageJ analyzed the time-lapse data to calculate the velocity, defined as distance (um)/time (hr), between time points and the average velocity of each cell was calculated. The maximum velocity is defined as the highest velocity obtained by a single cell during the tracking period.

C2C12 cells = assay: Scratch migration assay, C2C12 cells; type: cell-based; conditions: Mitomycin-C treated, 24 h, Wnt 100 ng/mL, vs Veh. or empty vector
Experimental: Cellular polarization is indicative of increased motility (de Forges et al., 2012). Scratch assays were used to test whether Wnt7a and Fzd7 polarization affect cell motility. To exclude effects on the localization of cells arising from altered rates of proliferation, cells were treated with Mitomycin-C.
(§1) Following plasmid transfection or application of Wnts (R&D Systems), the cells were treated with Mitomycin-C for 2 h (50 μg/mL). Subsequently, the monolayer of cells was scraped in a straight line. The plates were then extensively washed with culture medium and incubated for 24 h before analysis. Analysis was performed using DAPI staining after matching the reference points and enumeration of DAPI-stained nuclei in the scar was performed. Unless otherwise indicated, Wnt7a and Wnt3a were used at a concentration of 100 ng/mL in scratch assays. Monodansylcadaverine (MDC, 30432, Sigma) was used in scratch assays at a concentration of 50 μm.

mdx mice [1] = assay: Transplantation of Wnt-treated mouse primary myoblasts into mdx mice; type: in vivo; conditions: 100,000 mouse primary myoblasts
Experimental: In a clinical setting, freshly isolated satellite cells are often not readily available. Therefore, the effect of 3 h Wnt7a loading on cultured primary mouse myoblasts that were subsequently transplanted into injured muscles of immunosuppressed mdx mice (FIG. S5 A) was examined. After transplantation of 100,000 cells, the number of dystrophin-expressing myofibers was increased by 72% in muscles that were injected with Wnt7a treated myoblasts (FIG. 13B). […] In addition, the mean maximal cluster distance (dispersion) increased from 1.5 mm for Veh., to 2.0 mm for Wnt7a (FIG. 13D).
(§2) Transplantation of zsGreen-expressing satellite cells or myoblasts into mdx mice was performed as previously described (Bentzinger et al., 2013c). Before transplantation the cells were treated for 3 h with Wnt7a, Wnt5a, or Wnt3a (R&D Systems) at a concentration of 50 ng/mL for freshly isolated satellite cells or with 100 ng/mL for cultured cells. Myoblasts expressing tdTomato were transplanted into uninjured muscles of C57BL/6 mice that were implanted with an osmotic pump (Alzet) delivering FK506 (Sigma) at 2.5 mg/kg/day 3 days prior to the transplantations. In some experiments, the injection site was marked with blue fluorescent microspheres (2 μm, Life Technologies) that were added at a concentration of 1:100 (vol/vol) to the cell suspension. 10 μl of the cell-microsphere suspension was injected into the TA of each mouse using a Hamilton syringe.
Muscles frozen in liquid nitrogen were cut into 12 μm cross-sections. Cross-sections and cells were either fixed with ethanol (100%) or 2% PFA for 5 min, permeabilized with 0.1% Triton/0.1 M glycine/PBS for 10 min, blocked with 5% horse serum in PBS for several hours, and incubated with specific primary antibody in blocking buffer overnight at 4° C. Samples were subsequently washed with PBS and stained with appropriate fluorescently labeled secondary antibodies for 1 h at room temperature. After washing with PBS, samples were mounted with Permafluor (Fisher). Antibodies were as follows: chicken anti-GFP (Abcam, ab13970), mouse anti-Pax7 (DSHB), mouse anti-Dystrophin (7A10, DSHB), mouse anti-Rac1 (05-389, Millipore), mouse anti-Tubulin (Sigma, T9026), rabbit anti-Dvl2 (3224, Cell Signaling), rabbit anti-zsGreen (Clontech, 632474), rabbit anti-Laminin (Sigma, L9393), rabbit anti-HA (Millipore, 07-221).

mdx mice [2] = assay: Transplantation of Wnt7a-treated human primary myoblasts into mdx mice; type: in vivo, mouse
Experimental: The effectiveness of Wnt7a on human myoblasts, in vivo, was tested using the same experimental paradigm that we previously used for mouse myoblasts (FIG. 7C). 100,000 human myoblasts were treated ex vivo with Wnt7a for 3 h, and transplanted into immunosuppressed mdx mice. […] (FIG. 7D). […] Moreover, the mean maximal distance between dystrophin-expressing myofiber clusters increased from 1.8 mm under the Veh. condition to 3.0 mm for Wnt7a treatment (FIG. 7F).
as §2

human primary myoblasts = assay: Scratch migration assay, human primary myoblasts; type: cell-based
Experimental: The translational relevance of Wnt7a treatment was examined in human primary myoblasts.
as §1

B1: Wnt7a: non-canonical Wnt polypeptide (R&D Systems) used to treat or load myogenic cells (protein, UniProt O00755 32-349, looked up)
Protein Wnt-7a: LGASIICNKIPGLAPRQRAICQSRPDAIIVIGEGSQMGLDECQFQFRNGRWNCSALGERTVFGKELKVGSREAAFTYAIIAAGVAHAITAACTQGNLSDCGCDKEKQGQYHRDEGWKWGGCSADIRYGIGFAKVFVDAREIKQNARTLMNLHNNEAGRKILEENMKLECKCHGVSGSCTTKTCWTTLPQFRELGYVLKDKYNEAVHVEPVRASRNKRPTFLKIKKPLSYRKPMDTDLVYIEKSPNYCEEDPVTGSVGTQGRACNKTAPQASGCDLMCCGRGYNTHQYARVWQCNCKFHWCCYVKCNTCSERTEMYTCK
higher directional persistence (satellite cells): 36%
increase in mean velocity of satellite cells (satellite cells): 31%
mean maximal velocity (satellite cells): not significantly different; also recorded: not substantially different
increase in cell migration (C2C12 cells): 443%
increase in number of dystrophin-expressing myofibers (mdx mice [1]; 3 h loading (100 ng/mL), immunosuppressed mdx mice): 72%
hypertrophy of dystrophin-expressing myofibers (mdx mice [1]; 3 h loading, mdx mice): 87%
mean maximal cluster distance (dispersion) (mdx mice [1]; 3 h loading, mdx mice): 2.0 mm
increase in the number of dystrophin-expressing myofibers (mdx mice [2]; 100,000 human myoblasts treated ex vivo 3 h, immunosuppressed mdx mice, compared to Veh.): 226% and > 200%
mean maximal distance between dystrophin-expressing myofiber clusters (mdx mice [2]; human myoblasts treated ex vivo 3 h, mdx mice): 3.0 mm
increase in fiber feret (mdx mice [2]; myofibers fused to Wnt7a-treated human myoblasts, mdx mice): 29%
human myoblast migration (human primary myoblasts): significantly increases cell migration; also recorded: significantly increased human myoblast migration
